Measured values from publication PMC3884217.

Biological target: Nud1 pT78 peptide (budding yeast)

B1: Mob1 (construct not stated for this experiment) (natural protein)
chain: MSFLQNFHISPGQTIRSTRGFKWNTANAANNAGSVSPTKATPHNNTINGNNNNANTINNRADFTNNPVNGYNESDHGRMSPVLTTPKRHAPPPEQLQNVTDFNYTPSHQKPFLQPQAGTTVTTHQDIKQIVEMTLGSEGVLNQAVKLPRGEDENEWLAVHCVDFYNQINMLYGSITEFCSPQTCPRMIATNEYEYLWAFQKGQPPVSVSAPKYVECLMRWCQDQFDDESLFPSKVTGTFPEGFIQRVIQPILRRLFRVYAHIYCHHFNEILELNLQTVLNTSFRHFCLFAQEFELLRPADFGPLLELVMELRDR
With B1 as the binder, how does the Kd read?
The Kd was 2400 nM.
